The text below walks through data of IntAct's records for PubMed 10069336.

For assay [1], the target named is abl_drome Abl (UniProt P00522).
The target of assay [2] is ena_drome ena (UniProt Q8T4F7).
Sequence of UniProt Q8T4F7 (Q8T4F7 whole entry): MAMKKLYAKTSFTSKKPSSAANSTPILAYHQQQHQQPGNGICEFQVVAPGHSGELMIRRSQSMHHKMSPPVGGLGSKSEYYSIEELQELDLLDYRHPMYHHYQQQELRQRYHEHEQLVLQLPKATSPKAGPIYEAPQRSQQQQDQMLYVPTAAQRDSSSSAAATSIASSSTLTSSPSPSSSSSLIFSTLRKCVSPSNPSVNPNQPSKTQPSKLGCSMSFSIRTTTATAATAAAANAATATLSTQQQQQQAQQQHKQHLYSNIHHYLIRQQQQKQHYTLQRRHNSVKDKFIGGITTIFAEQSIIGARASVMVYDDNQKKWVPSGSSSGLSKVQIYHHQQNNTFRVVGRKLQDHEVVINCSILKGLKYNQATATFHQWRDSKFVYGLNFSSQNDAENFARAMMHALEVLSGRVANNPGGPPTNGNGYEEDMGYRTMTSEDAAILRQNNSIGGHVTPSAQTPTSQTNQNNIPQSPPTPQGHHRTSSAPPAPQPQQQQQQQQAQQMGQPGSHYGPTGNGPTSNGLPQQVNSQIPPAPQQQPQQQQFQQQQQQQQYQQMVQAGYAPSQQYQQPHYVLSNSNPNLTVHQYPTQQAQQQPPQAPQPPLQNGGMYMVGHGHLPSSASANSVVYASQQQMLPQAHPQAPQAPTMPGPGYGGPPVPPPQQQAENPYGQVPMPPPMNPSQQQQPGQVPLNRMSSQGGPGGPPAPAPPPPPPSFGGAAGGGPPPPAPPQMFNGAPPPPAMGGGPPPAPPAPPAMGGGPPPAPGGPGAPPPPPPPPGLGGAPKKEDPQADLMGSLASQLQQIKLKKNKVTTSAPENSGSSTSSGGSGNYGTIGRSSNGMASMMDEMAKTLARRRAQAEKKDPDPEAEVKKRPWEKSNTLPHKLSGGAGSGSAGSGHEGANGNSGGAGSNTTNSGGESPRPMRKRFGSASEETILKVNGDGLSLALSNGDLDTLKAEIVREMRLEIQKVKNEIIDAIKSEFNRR

Sequence of UniProt P00522 (P00522 whole entry): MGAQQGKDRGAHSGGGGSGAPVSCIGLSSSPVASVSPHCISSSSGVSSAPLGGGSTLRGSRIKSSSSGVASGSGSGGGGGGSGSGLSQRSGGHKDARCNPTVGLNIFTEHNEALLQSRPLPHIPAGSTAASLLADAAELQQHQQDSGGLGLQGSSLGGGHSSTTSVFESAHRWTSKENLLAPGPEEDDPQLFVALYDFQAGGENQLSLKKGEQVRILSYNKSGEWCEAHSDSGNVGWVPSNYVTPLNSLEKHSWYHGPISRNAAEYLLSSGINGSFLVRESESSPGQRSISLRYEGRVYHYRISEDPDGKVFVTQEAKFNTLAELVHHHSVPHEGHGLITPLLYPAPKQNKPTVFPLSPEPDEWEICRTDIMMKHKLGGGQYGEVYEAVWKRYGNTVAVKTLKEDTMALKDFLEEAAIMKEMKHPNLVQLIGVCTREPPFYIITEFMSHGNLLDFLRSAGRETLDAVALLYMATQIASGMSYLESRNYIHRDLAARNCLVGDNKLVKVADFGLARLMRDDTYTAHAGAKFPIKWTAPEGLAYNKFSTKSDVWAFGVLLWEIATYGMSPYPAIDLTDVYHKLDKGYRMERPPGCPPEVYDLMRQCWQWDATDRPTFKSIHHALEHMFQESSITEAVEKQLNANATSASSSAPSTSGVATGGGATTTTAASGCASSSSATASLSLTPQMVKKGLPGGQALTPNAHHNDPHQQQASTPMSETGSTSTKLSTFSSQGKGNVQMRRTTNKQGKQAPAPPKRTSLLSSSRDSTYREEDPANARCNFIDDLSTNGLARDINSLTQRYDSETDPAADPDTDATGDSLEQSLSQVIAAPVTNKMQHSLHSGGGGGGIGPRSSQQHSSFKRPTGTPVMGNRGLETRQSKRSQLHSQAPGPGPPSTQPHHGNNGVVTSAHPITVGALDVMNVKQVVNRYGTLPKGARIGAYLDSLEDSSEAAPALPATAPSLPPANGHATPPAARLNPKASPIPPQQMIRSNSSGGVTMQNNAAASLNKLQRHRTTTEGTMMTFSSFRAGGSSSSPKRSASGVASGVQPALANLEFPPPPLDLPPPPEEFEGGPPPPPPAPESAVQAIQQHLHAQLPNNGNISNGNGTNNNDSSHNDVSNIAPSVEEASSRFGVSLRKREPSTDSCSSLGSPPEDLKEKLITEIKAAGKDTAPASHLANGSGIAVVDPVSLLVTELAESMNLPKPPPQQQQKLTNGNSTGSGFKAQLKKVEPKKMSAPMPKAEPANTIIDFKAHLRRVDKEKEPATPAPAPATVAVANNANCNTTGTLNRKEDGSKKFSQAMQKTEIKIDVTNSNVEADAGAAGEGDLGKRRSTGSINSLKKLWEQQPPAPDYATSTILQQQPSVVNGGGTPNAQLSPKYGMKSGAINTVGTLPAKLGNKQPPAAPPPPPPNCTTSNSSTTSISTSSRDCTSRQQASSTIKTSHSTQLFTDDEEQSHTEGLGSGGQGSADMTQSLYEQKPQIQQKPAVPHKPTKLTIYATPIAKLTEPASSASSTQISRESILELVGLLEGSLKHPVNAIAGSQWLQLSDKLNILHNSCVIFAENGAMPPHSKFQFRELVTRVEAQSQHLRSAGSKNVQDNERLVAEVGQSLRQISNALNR

Regarding “Tyrosine-protein phosphatase Lar (Drosophila melanogaster (Fruit fly)), P16621 C1670S”, the “effect of a mutation on the interaction” value in assay [1] and in assay [2] was “decreasing interaction” each time.
